From PMC10786891, “Massively parallel profiling of RNA-targeting CRISPR-Cas13d” come the findings set out here.

The chains are these.
T1: EsCas13d, nuclease-dead (Eubacterium siraeum, UniProt B0MS50, R295A;H300A;R849A;H854A)
T1 sequence: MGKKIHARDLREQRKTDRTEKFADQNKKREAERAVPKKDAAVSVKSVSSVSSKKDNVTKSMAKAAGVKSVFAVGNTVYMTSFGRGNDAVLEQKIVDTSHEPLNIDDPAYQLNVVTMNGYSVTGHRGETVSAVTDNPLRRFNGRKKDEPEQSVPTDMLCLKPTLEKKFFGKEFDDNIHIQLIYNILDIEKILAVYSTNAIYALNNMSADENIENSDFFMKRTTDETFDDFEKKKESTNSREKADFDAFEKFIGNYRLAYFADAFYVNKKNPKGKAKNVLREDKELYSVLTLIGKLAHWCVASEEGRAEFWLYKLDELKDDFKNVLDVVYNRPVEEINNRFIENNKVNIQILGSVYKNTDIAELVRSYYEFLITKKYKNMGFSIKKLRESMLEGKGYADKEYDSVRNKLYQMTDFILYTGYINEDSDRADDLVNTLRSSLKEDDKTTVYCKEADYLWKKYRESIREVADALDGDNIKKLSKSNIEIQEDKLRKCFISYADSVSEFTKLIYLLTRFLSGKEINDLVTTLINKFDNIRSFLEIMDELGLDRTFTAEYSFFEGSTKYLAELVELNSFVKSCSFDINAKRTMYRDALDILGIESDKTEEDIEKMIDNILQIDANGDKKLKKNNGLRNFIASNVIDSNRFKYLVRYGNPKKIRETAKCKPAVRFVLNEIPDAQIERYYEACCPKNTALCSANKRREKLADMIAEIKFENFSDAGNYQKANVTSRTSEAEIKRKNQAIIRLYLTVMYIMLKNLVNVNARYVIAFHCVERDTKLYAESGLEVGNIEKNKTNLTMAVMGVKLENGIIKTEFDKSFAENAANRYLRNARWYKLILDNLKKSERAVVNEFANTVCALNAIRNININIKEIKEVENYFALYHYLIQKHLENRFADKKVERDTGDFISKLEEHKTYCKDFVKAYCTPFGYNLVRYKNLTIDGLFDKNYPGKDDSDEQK

B1: target 3 insC 3' of 5,insU 3' of 4 (mixed)
RNA 1: CACCCGUGCAAAAUUGCAGGGGUCUAAAACGACCUGAAUAUUUCAGAUCAAA
RNA 2: GGGAAUGGAUCCACAUCUACGAAUUCGUUUUUGAUCUGAAAUAUUCACGUGUCUGCAGAUCGGAAGAGCACACGU
B2: target 3 A12C,U22A (mixed)
RNA 1: B1 RNA 1
RNA 2: GGGAAUGGAUCCACAUCUACGAAUUCGUUAUUGAUCUGACAUAUUCAGGUCUGCAGAUCGGAAGAGCACACGU
B3: target 3 insG 3' of 6,insC 3' of 2 (mixed)
RNA 1: B1 RNA 1
RNA 2: B1 RNA 2 with A47G, C48A, U50G, G51U, U52C
B4: target 3 U2A (mixed)
RNA 1: B1 RNA 1
RNA 2: B2 RNA 2 with A30U, C40A, U50A
B5: target 3 U8G,A18G (mixed)
RNA 1: B1 RNA 1
RNA 2: B2 RNA 2 with A30U, A34G, C40A, U44G
B6: target 3 G4A,G19U (mixed)
RNA 1: B1 RNA 1
RNA 2: B2 RNA 2 with A30U, G33U, C40A, G48A
B7: target 3 G4C,A18G (mixed)
RNA 1: B1 RNA 1
RNA 2: B2 RNA 2 with A30U, A34G, C40A, G48C
B8: target 3 U2A,C6G (mixed)
RNA 1: B1 RNA 1
RNA 2: B2 RNA 2 with A30U, C40A, C46G, U50A
B9: target 3 insU 3' of 4,insG 3' of 2 (mixed)
RNA 1: B1 RNA 1
RNA 2: B1 RNA 2 with C48G, G49U, U50G, G51U, U52G
B10: target 3 insG 3' of 9,insG 3' of 8 (mixed)
RNA 1: B1 RNA 1
RNA 2: B1 RNA 2 with U44G, C46G, A47U, G49A, U50G
B11: target 3 U8C,U22C (mixed)
RNA 1: B1 RNA 1
RNA 2: B2 RNA 2 with A30C, C40A, U44C
B12: target 3 insU 3' of 5,insU 3' of 5 (mixed)
RNA 1: B1 RNA 1
RNA 2: B1 RNA 2 with C48U, G49U, U50G
B13: target 3 insG 3' of 6,insG 3' of 1 (mixed)
RNA 1: B1 RNA 1
RNA 2: B1 RNA 2 with A47G, C48A, U50G, G51U, U52C, C53G
B14: target 3 insU 3' of 1,insG 3' of 1 (mixed)
RNA 1: B1 RNA 1
RNA 2: B1 RNA 2 with C48G, G51C, C53G
B15: target 3 insU 3' of 4,insU 3' of 3 (mixed)
RNA 1: B1 RNA 1
RNA 2: B1 RNA 2 with C48G, G49U, U50G, G51U
B16: target 3 insA 3' of 7,insC 3' of 5 (mixed)
RNA 1: B1 RNA 1
RNA 2: B1 RNA 2 with C46A, A47C, C48A, G49C, U50G
B17: target 3 insU 3' of 1 (mixed)
RNA 1: B1 RNA 1
RNA 2: GGGAAUGGAUCCACAUCUACGAAUUCGUUUUUGAUCUGAAAUAUUCAGGUCUUGCAGAUCGGAAGAGCACACGU
B18: target 3 U2G,G3A (mixed)
RNA 1: B1 RNA 1
RNA 2: B2 RNA 2 with A30U, C40A, G49A, U50G
B19: target 3 U8C,A18G (mixed)
RNA 1: B1 RNA 1
RNA 2: B2 RNA 2 with A30U, A34G, C40A, U44C
B20: target 3 insA 3' of 6,insA 3' of 2 (mixed)
RNA 1: B1 RNA 1
RNA 2: B1 RNA 2 with C48A, U50G, G51U, U52A
B21: target 3 insC 3' of 8,insU 3' of 5 (mixed)
RNA 1: B1 RNA 1
RNA 2: B1 RNA 2 with U45C, C46U, A47C, C48A, G49U, U50G
B22: target 3 complement block 2-7 (mixed)
RNA 1: B1 RNA 1
RNA 2: B2 RNA 2 with A30U, C40A, U45A, C46G, A47U, G48C, G49C, U50A
B23: target 3 insG 3' of 6,insA 3' of 1 (mixed)
RNA 1: B1 RNA 1
RNA 2: B1 RNA 2 with A47G, C48A, U50G, G51U, U52C, C53A
B24: target 3 insC 3' of 8,insG 3' of 8 (mixed)
RNA 1: B1 RNA 1
RNA 2: B1 RNA 2 with U45C, C46G, A47U, G49A, U50G
B25: target 3 insU 3' of 16,insC 3' of 4 (mixed)
RNA 1: B1 RNA 1
RNA 2: B1 RNA 2 with G38U, A39G, U42A, A43U, U44A, C46U, A47C, C48A, U50C
B26: target 3 insU 3' of 13,insG 3' of 2 (mixed)
RNA 1: B1 RNA 1
RNA 2: GGGAAUGGAUCCACAUCUACGAAUUCGUUUUUGAUCUGAUAAUAUUCAGGUGCUGCAGAUCGGAAGAGCACACGU
B27: target 3 A11C,A18C (mixed)
RNA 1: B1 RNA 1
RNA 2: B2 RNA 2 with A30U, A34C, C40A, A41C
B28: target 3 insG 3' of 9,insG 3' of 2 (mixed)
RNA 1: B1 RNA 1
RNA 2: B26 RNA 2 with U40A, A42U, U43A, A44G
B29: target 1 del14,del19 (mixed)
RNA 1: CACCCGUGCAAAAAUGCAGGGGUCUAAAACUGAGCGGAUAACCUCUCUAUGG
RNA 2: GGGAAUGGAUCCACAUCUACGAAUUCGUACCAAGAGGGUUAUCCGCUCACCGAGAUCGGAAGAGCACACGU
B30: target 1 C2G,C7G (mixed)
RNA 1: B29 RNA 1
RNA 2: GGGAAUGGAUCCACAUCUACGAAUUCGUACCAUAGAGAGGUUAUGCGCUGACCGAGAUCGGAAGAGCACACGU
B31: target 1 insU 3' of 20,insC 3' of 20 (mixed)
RNA 1: B29 RNA 1
RNA 2: GGGAAUGGAUCCACAUCUACGAAUUCGUACCAUCUAGAGAGGUUAUCCGCUCACCGAGAUCGGAAGAGCACACGU

Positions count from the first letter of the chain named. Names and notes keep the numbering of the source.

The target in the data set is T1, EsCas13d, nuclease-dead. Description: crRNA (strand 1, pre-loaded); Mg2+; 40 mM Tris-HCl pH 7.5, 150 mM NaCl, 6 mM MgCl2, 1 mM DTT, 0.1% Tween-20, 0.2 mg/ml BSA; 25 C; 10 min per concentration, then washed. The settings on record: tags: His6-TwinStrep-SUMO cleaved; N-terminal SNAP kept (SNAP-Surface 488); label: 3' end held by stalled T7 RNA polymerase.
For B1, the Kd (commonly the free concentration of one partner at which half of the binding sites on the other are occupied at equilibrium, for simple one-to-one binding) turned out to be 9.85 ± 0.85 nM.

Regarding B2, the affinity, expressed as Kd, was 71 ± 26 nM.

Consider B3, for which binding was put at a Kd of 74 ± 27 nM.

As to B4, the equilibrium dissociation constant (Kd) amounted to 24.3 ± 1.8 nM.

B5 gave a dissociation constant Kd of 72.5 ± 14.5 nM.

B6 returned a dissociation constant (Kd) of 98.5 ± 19.5 nM.

In turn, B7 yielded a Kd of 34.4 ± 3.95 nM.

B8 yielded a Kd of 37 ± 5 nM.

As for B9, binding was characterised by a dissociation constant (Kd) of 19.5 ± 2.35 nM. This Kd lies about 1.9-fold lower than the previous one.

As for B10, the Kd is 57 ± 6 nM.

Molecule B11 registered a Kd of 46 ± 8.5 nM.

B12 gave a Kd of 3.87 ± 0.32 nM.

As to B13, the Kd worked out at 25 ± 10.5 nM.

For B14, the Kd worked out at 20.4 ± 2.25 nM.

Regarding B15, binding was characterised by a dissociation constant (Kd) of 15.2 ± 1.8 nM.

As to B16, binding was characterised by a dissociation constant (Kd) of 28.2 ± 1.85 nM.

In turn, B17 had a Kd of 85.5 ± 18.5 nM.

For the molecule B18, the Kd was found to be 44 ± 6.5 nM. This Kd is about 1.9-fold lower than that of the molecule before.

The molecule B19 showed a Kd of 55.5 ± 4.5 nM.

B20 had a Kd of 4.2 ± 0.55 nM. Compared with the last molecule, the Kd is about 13-fold lower.

In turn, B21 showed a dissociation constant (Kd) of 79.5 ± 15 nM.

With B22, the Kd is 54.5 ± 7 nM.

For the molecule B23, the affinity, expressed as Kd, was 76 ± 34 nM.

Molecule B24 returned a Kd of 79 ± 15.5 nM.

As for B25, binding was characterised by a dissociation constant (Kd) of 84.5 ± 27 nM.

The molecule B26 came in with a Kd of 35.5 ± 7 nM. Against the preceding molecule, the Kd is about 2.4-fold lower.

Molecule B27 registered a dissociation constant Kd of 39 ± 4 nM.

Turning to B28, the Kd was 63.5 ± 14.5 nM.

Molecule B29 returned a Kd of 79 ± 25 nM.

Regarding B30, the dissociation constant Kd turned out to be 8.9 ± 0.4 nM.

For B31, binding was characterised by a dissociation constant (Kd) of 75 ± 13 nM.
